Results from patent US20020160955A1 (published 2002).

Columns and labels:
Test in all cases: competitive phage ELISA
[1] = target: T1, IGF-I E3A (G1S-A70V background) displayed on phage (human; bacteriophage M13, UniProt P69168 267-424)
T1 chain: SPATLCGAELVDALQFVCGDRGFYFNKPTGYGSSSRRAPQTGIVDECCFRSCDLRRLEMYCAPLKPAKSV
Summary of the method: (§1)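 Phage, normalized to a maximal ELISA signal of 0.2-0.4 per mutant, were premixed with threefold serial dilutions of soluble competitor in 0.5% Tween 20/PBS and incubated 1 h at room temperature on immobilized target.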

[2] = target: T2, IGF-I F16A (G1S-A70V background) displayed on phage (human; bacteriophage M13)
T2 construct: monovalent M13 phage display
T2 chain: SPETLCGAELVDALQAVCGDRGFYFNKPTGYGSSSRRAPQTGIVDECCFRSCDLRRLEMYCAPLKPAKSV
Summary of the method: as §1

[3] = target: T3, IGF-I D20A (G1S-A70V background) displayed on phage (human; bacteriophage M13, not fully specified; Displayed monovalently on M13 phage as a C-terminal fusion to the gene III fragment, which is left out of the letters.)
T3 construct: monovalent M13 phage display; not shown: Display carrier: M13 gene III fragment (residues 249-406) and its junction
T3 chain: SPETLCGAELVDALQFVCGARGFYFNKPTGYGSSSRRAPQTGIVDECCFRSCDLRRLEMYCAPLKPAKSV
Summary of the method: as §1

[4] = target: T4, IGF-I F25A (G1S-A70V background) displayed on phage (human; bacteriophage M13, not fully specified; Displayed monovalently on M13 phage as a C-terminal fusion to the gene III fragment, which is left out of the letters.)
T4 construct: monovalent M13 phage display; not shown: Display carrier: M13 gene III fragment (residues 249-406) and its junction
T4 chain: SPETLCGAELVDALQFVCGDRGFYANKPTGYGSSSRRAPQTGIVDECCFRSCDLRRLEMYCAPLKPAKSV
Summary of the method: as §1

[5] = target: T5, IGF-I K27A (G1S-A70V background) displayed on phage (human; bacteriophage M13, not fully specified; Displayed monovalently on M13 phage as a C-terminal fusion to the gene III fragment, which is left out of the letters.)
T5 construct: monovalent M13 phage display; not shown: Display carrier: M13 gene III fragment (residues 249-406) and its junction
T5 chain: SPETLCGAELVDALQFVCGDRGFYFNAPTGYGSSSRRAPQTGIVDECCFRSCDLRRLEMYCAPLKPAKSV
Summary of the method: as §1

[6] = target: T6, IGF-I P28A (G1S-A70V background) displayed on phage (human; bacteriophage M13)
T6 construct: monovalent M13 phage display; not shown: M13 gene III fragment (residues 249-406, display partner) and the junction to it
T6 chain: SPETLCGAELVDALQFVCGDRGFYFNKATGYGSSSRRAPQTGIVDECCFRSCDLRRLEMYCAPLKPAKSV
Summary of the method: as §1

[7] = target: T7, IGF-I Y31A (G1S-A70V background) displayed on phage (human; bacteriophage M13)
T7 construct: monovalent M13 phage display; not shown: M13 gene III fragment (residues 249-406, display partner) and the junction to it
T7 chain: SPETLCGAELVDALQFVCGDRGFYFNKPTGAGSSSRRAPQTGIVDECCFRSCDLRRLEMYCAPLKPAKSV
Summary of the method: as §1

[8] = target: T8, IGF-I G32A (G1S-A70V background) displayed on phage (human; bacteriophage M13)
T8 construct: monovalent M13 phage display; not shown: M13 gene III fragment (residues 249-406, display partner) and the junction to it
T8 chain: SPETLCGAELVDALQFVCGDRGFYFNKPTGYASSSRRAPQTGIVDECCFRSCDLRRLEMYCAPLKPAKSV
Summary of the method: as §1

[9] = target: T9, IGF-I R37A (G1S-A70V background) displayed on phage (human; bacteriophage M13)
T9 construct: monovalent M13 phage display
T9 chain: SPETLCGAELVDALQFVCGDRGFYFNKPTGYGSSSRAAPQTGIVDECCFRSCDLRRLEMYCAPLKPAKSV
Summary of the method: as §1

[10] = target: T10, IGF-I G42A (G1S-A70V background) displayed on phage (human; bacteriophage M13)
T10 construct: monovalent M13 phage display
T10 chain: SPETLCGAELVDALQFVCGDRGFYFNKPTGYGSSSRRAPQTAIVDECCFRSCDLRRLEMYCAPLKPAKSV
Summary of the method: as §1

[11] = target: T11, IGF-I E58A (G1S-A70V background) displayed on phage (human; bacteriophage M13)
T11 construct: monovalent M13 phage display; not shown: M13 gene III protein fragment (residues 249-406), the phage display carrier, and its junction to IGF-I
T11 chain: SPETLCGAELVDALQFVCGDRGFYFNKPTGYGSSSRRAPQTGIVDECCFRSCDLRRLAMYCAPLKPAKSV
Summary of the method: as §1

[12] = target: T12, IGF-I Y60A (G1S-A70V background) displayed on phage (human; bacteriophage M13)
T12 construct: monovalent M13 phage display; not shown: M13 gene III protein fragment (residues 249-406), the phage display carrier, and its junction to IGF-I
T12 chain: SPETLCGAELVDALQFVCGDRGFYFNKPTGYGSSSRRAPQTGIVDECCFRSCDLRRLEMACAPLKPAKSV
Summary of the method: as §1

[13] = target: T13, IGF-I P63A (G1S-A70V background) displayed on phage (human; bacteriophage M13)
T13 construct: monovalent M13 phage display; not shown: M13 gene III protein fragment (residues 249-406), the phage display carrier, and its junction to IGF-I
T13 chain: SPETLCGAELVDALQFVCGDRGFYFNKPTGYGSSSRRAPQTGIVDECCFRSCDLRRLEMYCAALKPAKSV
Summary of the method: as §1

[14] = target: T14, IGF-I K65A (G1S-A70V background) displayed on phage (human; bacteriophage M13)
T14 construct: monovalent M13 phage display; not shown: M13 gene III protein fragment (residues 249-406), the phage display carrier, and its junction to IGF-I
T14 chain: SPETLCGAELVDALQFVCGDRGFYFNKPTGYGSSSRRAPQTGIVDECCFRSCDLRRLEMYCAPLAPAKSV
Summary of the method: as §1

B1: human IGFBP-1 (other, UniProt P08833 26-259, looked up)
chain: APWQCAPCSAEKLALCPPVSASCSEVTRSAGCGCCPMCALPLGAACGVATARCARGLSCRALPGEQQPLHALTRGQGACVQESDASAPHAAEAGSPESPESTEITEEELLDNFHLMAPSEEDHSILWDAISTYDGSKALHVTNIKKWKEPCRIELYRVVESLAKAQETSGEEISKFYLPNCNKNGFYHSRQCETSMDGEAGLCWCVYPWNGKRIPGSPEIRGDPNCQIYFNVQN
notes: secreted recombinant protein purified from conditioned medium
For B1, which IC50 [1] is on record?
The IC50 was 278 nM.

What about the IC50 [2] of the same binder?
Its IC50 is 57.8 nM.

What about the IC50 [3] of the same binder?
The IC50 was 8.4 nM.

What about the IC50 [4] of the same binder?
Its IC50 is 181 nM.

What about the IC50 [5] of the same binder?
The IC50 was 12.8 nM.

And the IC50 [6]?
Its IC50 is 9.3 nM.

And the IC50 [7]?
The IC50 was 6.8 nM.

What about the IC50 [8] of the same binder?
The IC50 was 10.9 nM.

What about the IC50 [9] of the same binder?
Its IC50 is 12.3 nM.

What about the IC50 [10] of the same binder?
Its IC50 is 15.7 nM.

And the IC50 [11]?
Its IC50 is 11.9 nM.

What about the IC50 [12] of the same binder?
The IC50 was 6.6 nM.

What about the IC50 [13] of the same binder?
The IC50 was greater than 1000 nM.

And the IC50 [14]?
The IC50 was 12.4 nM.
